{"source": "patent US20160053277A1", "about": "“Compositions Having Dicamba Decarboxylase Activity and Methods of Use” (PIONEER HI-BRED INTERNATIONAL, INC., priority 2013, published 2016)", "assay": "Shuffled variant libraries: 14CO2 capturing assay in 384-well format", "conditions": "decarboxylation activity (carbon dioxide released) compared with unmutated backbone protein SEQ ID NO 380 (DDEC0301)"}
{"molecule": "457 (protein, Dicamba decarboxylase variant) MAQGKVALEEHFAIPETLQDAAGFVPGDYWKELQHRLLDIQDTRLKLMDKHEIETMILSLAAPAVQAIPDRRKAIEIARRANDFLAEEVAKRPDRFLAFAALPMQDPDAATEELQRCVNDLGFVGAMVNGFSQEGDGQTPLYYDLPQYRPFWGEVEKLDVPFYLHPRNPLPQDSRIYDGHPWLLGPTWAFAQETAVHALRLMASGLFDEHPGLNIILGHLGEGLPYMMYRIDHRIAWVKAPPDYPAKRRFMDYFNENFHITTSGNFRTQTLIDAILEIGADRILFSTDWPFENIDHAAAWFNATSIAEADRLKIGRTNARRLFKLDGR", "values": [{"measurement": "Fold Activity", "value": 1.7}]}
{"molecule": "463 (protein, Dicamba decarboxylase variant) MAQGKVALEEHFAIPETLQDAAGFVPGDYWKELQHRLLDIQDTRLKLMDKHEIETMILSLAAPAVQAIPDRRKAIEIARRANDFLAEEVAKRPDRFLAFAALPLQDVDAATEELQRCVNDLGFVGAMVNGFSQEGDGQTPLYYDLPQYRPFWGEVEKLDVPFYLHPRNPLPQDSRIYDGHPWLLGPTWAFAQETAVHALRLMASGLFDEHPRLNIILGHMGEGLPYMMYRIDHRIAWVKAPPDYPAKRRFMDYFLENFHITTSGNFRTQTLIDAILEIGADRILFSTDWPFENIDHAADWFNATSIAEADRVKIGRTNARRLFKLDGR", "values": [{"measurement": "Fold Activity", "value": 1.6}]}
{"molecule": "461 (protein, Dicamba decarboxylase variant) MAQGKVALEEHFAIPETLQDAAGFVPGDYWKELQHRLLDIQDTRLKLMDKHEIETMILSLAAPAVQAIPDRVKAIEIARRANDFLAEEVAKRPDRFLAFAALPLQDPDAATEELQRCVNDLGFVGAMVNGFSQEGDGQTPLYYDLPQYRPFWGEVEKLDVPFYLHPRNPLPQDSRIYDGHPWLLGPTWAFAQETAVHALRLMASGLFDEHPRLNIILGHMGEGLPYMMYRIDHRIAWVKAPPDYPAKRRFMDYFLENFHITTSGNFRTQTLIDAILEIGADRILFSTDWPFENIDHAADWFNATSIAEADRVKIGRTNARRLFKLGGR", "values": [{"measurement": "Fold Activity", "value": 1.7}]}
{"molecule": "466 (protein, Dicamba decarboxylase variant) MAQGKVALEEHFAIPETLNDAAGFVPGDYWKELQHRLLDIQDTRLKLMDKHEIETMILSLAAPAVQAIPDRVKAIEIARRANDFLAEEVAKRPDRFLAFAALPLQDPDAATEELQRCVNDLGFVGAMVNGFSQEGDGQTPLYYDLPQYRPFWGEVEKLDVPFYLHPRNPLPQDSRIYDGHPWLLGPTWAFAQETAVHALRLMASGLFDEHPRLNIILGHMGEGLPYMMYRIDHRIAWVKAPPDYPAKRRFMDYFNENFHITTSGNFRTQTLIDAILEIGADRILFSTDWPFENIDHAADWFNATSIAEADRVKIGRTNARRLFKLDGR", "values": [{"measurement": "Fold Activity", "value": 1.8}]}
{"molecule": "470 (protein, Dicamba decarboxylase variant) MAQGKVALEEHFAIPETLQDAAGFVPGDYWKELQHRLLDIQDTRLKLMDKHEIETMILSLAAPAVQAIPDRRKAIEIARRANDFLAEEVAKRPDRFLAFAALPMQDVDAATEELQRCVRDLGFVGAMVNGFSQEGDGQTPLYYDLPQYRPFWGEVEKLDVPFYLHPRNPLPQDSRIYDGHPWLLGPTWAFAQETAVHALRLMASGLFDEHPRLNIILGHLGEGLPYMMYRIDHRIAWVKAPPDYPAKRRFMDYFLENFHITTSGNFRTQTLIDAILEIGADRILFSTDWPFENIDHAADWFNATSIAEADRVKIGRTNARRLFKLDGR", "values": [{"measurement": "Fold Activity", "value": 1.8}]}
{"molecule": "467 (protein, Dicamba decarboxylase variant) MAQGKVALEEHFAIPETLDDAAGFVPGDYWKELQHRLLDIQDTRLKLMDKHEIETMILSLAAPAVQAIPDRVKAIEIARRANDFLAEEVAKRPDRFLAFAALPLQDPDAATEELQRCVNDLGFVGAMVNGFSQEGDGQTPLYYDLPQYRPFWGEVEKLDVPFYLHPRNPLPQDSRIYDGHPWLLGPTWAFAQETAVHALRLMASGLFDEHPRLNIILGHMGEGLPYMMYRIDHRIAWVKAPPDYPAKRRFMDYFNENFHITTSGNFRTQTLIDAILEIGADRILFSTDWPFENIDHAADWFNATSIAEADRVKIGRTNARRLFKLDGR", "values": [{"measurement": "Fold Activity", "value": 1.7}]}
{"molecule": "459 (protein, Dicamba decarboxylase variant) MAQGKVALEEHFAIPETLQDAAGFVPGDYWKELQHRLLDIQDTRLKLMDKHEIETMILSLAAPAVQAIPDRRKAIEIARRANDFLAEEVAKRPDRFLAFAALPLQDPDAATEELQRCVNDLGFVGALVNGFSQEGDGQTPLYYDLPQYRPFWGEVEKLDVPFYLHPRNPLPQDSRIYDGHPWLLGPTWAFAQETAVHALRLMASGLFDEHPRLNIILGHMGEGLPYMMYRIDHRIGWVQAPPDYPAKRRFMDYFLENFHITTSGNFRTQTLIDAILEIGADRILFSTDWPFENIDHAAAWFAETSIAEADRLKIGRTNARRLFKLDGR", "values": [{"measurement": "Fold Activity", "value": 1.1}]}
{"molecule": "469 (protein, Dicamba decarboxylase variant) MAQGKVALEEHFAIPETLQDAAGFVPGDYWKELQHRLLDIQDTRLKLMDKHEIGTMILSLAAPAVQAIPDRRKAIEIARRANDFLAEEVAKRPDRFLAFAALPLQDPDAATEELQRCVNDLGFVGAMVNGFSQEGDGQTPLYYDLPQYRPFWGEVEKLDVPFYLHPRNPLPQDSRIYDGHPWLLGPTWAFAQETAVHALRLMASGLFDEHPRLNIILGHMGEGLPYMMYRIDHRIAWVKAPPDYPAKRRFMDYFNENFHITTSGNFRTQTLIDAILEIGADRILFSTDWPFENIDHAADWFNATSIAEADRVKIGRTNARRLFKLDGR", "values": [{"measurement": "Fold Activity", "value": 1.8}]}
{"molecule": "465 (protein, Dicamba decarboxylase variant) MAQGKVALEEHFAIPETLNDAADFVPGDYWKELQHRLLDIQDTRLKLMDKHEIETMILSLAAPAVQAIPDRRKAIEIARRANDFLAEEVAKRPDRFLAFAALPLQDPDAATEELQRCVNDLGFVGAMVNGFSQEGDGQTPLYYDLPQYRPFWGEVEKLDVPFYLHPRNPLPQDSRIYDGHPWLLGPTWAFAQETAVHALRLMASGLFDEHPRLNIILGHMGEGLPYMMYRIDHRIAWVKAPPDYPAKRRFMDYFNENFHITTSGNFRTQTLIDAILEIGADRILFSTDWPFENIDHAADWFNATSIAEADRVKIGRTNARRLFKLDGR", "values": [{"measurement": "Fold Activity", "value": 1.6}]}
{"molecule": "464 (protein, Dicamba decarboxylase variant) MAQGKVALEEHFAIPETLNDAAGFVPSDYWKELQHRLLDIQDTRLKLMDKHEIETMILSLAAPAVQAIPDRVKAIEIARRANDFLAEEVAKRPDRFLAFAALPLQDPDAATEELQRCVNDLGFVGALVNGFSQEGDGQTPLYYDLPQYRPFWGEVEKLDVPFYLHPRNPLPQDSRIYDGHPWLLGPTWAFAQETAVHALRLMASGLFDEHPRLNIILGHMGEGLPYMMYRIDHRIAWVKAPPDYPAKRRFMDYFLENFHITTSGNFRTQTLIDAILEIGADRILFSTDWPFENIDHAADWFNATSIAEADRVKIGRTNARRLFKLDGR", "values": [{"measurement": "Fold Activity", "value": 1.0}]}
{"molecule": "460 (protein, Dicamba decarboxylase variant) MAQGKVALEEHFAIPETLQDAAGFVPGDYWKELQHRLLDIQDTRLKLMDKHEIETMILSLAAPAVQAIPDRVKAIEIARRANDFLAEEVAKRPDRFLAFAALPLQDVDAATEELQRCVNDLGFVGAMVNGFSQEGDGQTPLYYDLPQYRPFWGEVEKLDVPFYLHPRNPLPQDSRIYDGHPWLLGPTWAFAQETAVHALRLMASGLFDEHPRLNIILGHMGEGLPYMMYRIDHRIAWVKAPPDYPAKRRFMDYFNENFHITTSGNFRTQTLIDAILEIGADRILFSTDWPFENIDHAADWFNAASIAEADRVKIGRTNARRLFKLDGR", "values": [{"measurement": "Fold Activity", "value": 1.9}]}
{"molecule": "462 (protein, Dicamba decarboxylase variant) MAQGKVALEEHFAIPETLQDAADFVPGDYWKELQHRLLDIQDTRLKLMDKHEIETMILSLAAPAVQAIPDRRKAIEIARRANDFLAEEVAKRPDRFLAFAALPLQDVDAATEELQRCVNDLGFVGAMVNGFSQEGDGQTPLYYDLPQYRPFWGEVEKLDVPFYLHPRNPLPQDSRIYDGHPWLLGPTWAFAQETAVHALRLMASGLFDEHPRLNIILGHMGEGLPYMMYRIDHRIAWVKAPPDYPAKRRFMDYFNENFHITTSGNFRTQTLIDAILEIGADRILFSTDWPFENIDHAADWFNATSIAEADRVKIGRTNARRLFKLDGR", "values": [{"measurement": "Fold Activity", "value": 1.1}]}
{"molecule": "471 (protein, Dicamba decarboxylase variant) MAQGKVALEEHFAIPETLQDAADFVPGDYWKELQHRLLDIQDTRLKLMDKHEIETMILSLAAPAVQAIPDRRKAIEIARRANDFLAEEVAKRPDRFLAFAALPLQDPDAATEELQRCVRDLGFVGAMVNGFSQEGDGQTPLYYDLPQYRPFWGEVEKLDVPFYLHPRNPLPQDSRIYDGHPWLLGPTWAFAQETAVHALRLMASGLFDEHPRLNIILGHLGEGLPYMMYRIDHRIAWVKAPPDYPAKRRFMDYFLENFHITTSGNFRTQTLIDAILEIGADRILFSTDWPFENIDHAADWFNATSIAEADRVKIGRTNARRLFKLDGR", "values": [{"measurement": "Fold Activity", "value": 1.3}]}
{"molecule": "468 (protein, Dicamba decarboxylase variant) MAQGKVALEEHFAIPETLNDAAGFVPGDYWKELQHRLLDIQDTRLKLMDKHEIETMILSLAAPAVQAIPDRVKAIEIARRANDFLAEEVAKRPDRFLAFAALPLQDVDAATEELQRCVNDLGFVGAMVNGFSQEGDGQTPLYYDLPQYRPFWGEVEKLDVPFYLHPRNPLPQDSRIYDGHPWLLGPTWAFAQETAVHALRLMASGLFDEHPRLNIILGHMGEGLPYMMYRIDHRIAWVKAPPDYPAKRRFMDYFLENFHITTSGNFRTQTLIDAILEIGADRILFSTDWPFENIDHAADWFNATSIAEADRVKIGRTNARRLFKLDGR", "values": [{"measurement": "Fold Activity", "value": 2.1}]}
{"molecule": "458 (protein, Dicamba decarboxylase variant) MAQGKVALEEHFAIPATLNDAAGFVPGDYWKELQHRLLDIQDTRLKLMDKHEIETMILSLAAPAVQAIPDRRKAIEIARRANDFLAEEVAKRPDRFLAFAALPLQDPDAATEELQRCVNDLGFVGAMVNGFSVEGDGQTPLYYDLPQYRPFWGEVEKLDVPFYLHPRNPLPQDSRIYDGHPWLLGPTWAFAQETAVHALRLMASGLFDEHPGLQIILGHLGEGLPYMMYRIDHRIGWVQAPPDYPAKRRFMDYFLENFHITTSGNFRTQTLIDAILEIGADRILFSTDWPFENIDHAAAWFAETSIAEADRVKIGRTNARRLFKLDGR", "values": [{"measurement": "Fold Activity", "value": 1.2}]}
